From publication PMC4014737

Target: biotinylated yeast L3Δ21 peptide (S. cerevisiae) (UniProt P14126)
Experiment: SPR; Biacore 3000; biotinylated L3Δ21 peptide on an SA sensor chip (Fc2), PAP as analyte at 103, 94, 75 and 45 pM; 25 °C; HBS-EP (0.1 M HEPES pH 7.4, 0.15 M NaCl, 3 mM EDTA, 0.005% polysorbate 20); 1:1 Langmuir fit

UniProt P14126, sequence (P14126 1-21, stated change not applied): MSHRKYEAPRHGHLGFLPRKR

Which results are given for “His-tagged pokeweed antiviral protein (PAP), recombinant (enzyme)”?
Kd: 24.8 nM; koff: 4.6e-05 s⁻¹; kon: 1860 M⁻¹ s⁻¹
